Consider two molecules from patent US9540428B2, “Extracellular matrix heparin-binding domains” (EPFL-TTO, priority 2012, dated 2017).

Conditions in all cases: 50 nM cytokine coated
One assay has as its target T1, NT-3 (Homo sapiens, UniProt P20783).
T1 sequence (P20783 139-257): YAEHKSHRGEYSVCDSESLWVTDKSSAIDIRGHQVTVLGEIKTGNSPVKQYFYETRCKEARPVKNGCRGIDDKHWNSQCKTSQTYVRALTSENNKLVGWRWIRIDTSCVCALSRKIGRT
Description: ELISA binding to coated NT-3. As to the method: (§1) ELISA plates were coated with cytokines or BSA and further incubated with TNC III1-5 to analyze binding of TNC III1-5 to a wide variety of cytokines. […] Results are depicted in FIG. 3. Method: 50 nM of cytokine was coated for (1 hr, 37° C.). After blocking with 2% BSA (1 hr, RT). 100 nM TNC III1-5 was applied in PBST (0.05% tween, 0.1% bovine serum albumin (BSA)) (1 hr, RT). TNC III1-5 was detected with horseradish peroxidase (HRP)-anti-HIS in PBST (1 hr, RT) and developed with 3,3′,5,5′-tetramethylbenzidine (TMB), a soluble colorimetric HRP […]. Addition of sulfuric acid stop solution changes the color to yellow, enabling accurate measurement of the intensity at 450 nm using a spectrophotometer or plate reader. […] Heparin (4 μM) was added to TNC III1-5 to test the effect of blocking the heparin binding site of TNC III1-5, which has been defined as domain TNC III5 (Weber, Zimmermann, et al., 1995).
(§2) ELISA plates were coated with cytokines or BSA and further incubated with Fg β15-66 to analyze binding of […] to a wide variety of cytokines. […] Results are depicted in FIG. 4. Method: The methods were analogous to those used in Example 3.
On the technique in general: ELISA stands for enzyme-linked immunosorbent assay.

Another assay deals with T2, FGF-7 (Homo sapiens, UniProt P21781).
T2 sequence (P21781 32-194): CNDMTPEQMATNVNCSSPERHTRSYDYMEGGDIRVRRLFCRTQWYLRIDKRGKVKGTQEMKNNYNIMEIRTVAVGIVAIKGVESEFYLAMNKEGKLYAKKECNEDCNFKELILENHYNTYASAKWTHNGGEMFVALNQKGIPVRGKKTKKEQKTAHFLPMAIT
As to the kind of experiment: ELISA binding to coated FGF-7. The procedure: as §1, §2

Another assay concerns the target FGF-2 (Homo sapiens, UniProt P09038). As to the kind of experiment: ELISA binding to coated FGF-2. The procedure:
as §1, §2

In a further assay the target is T3, PLGF-1 (Homo sapiens, UniProt P49763).
T3 sequence (P49763 19-149 isoform P49763-2): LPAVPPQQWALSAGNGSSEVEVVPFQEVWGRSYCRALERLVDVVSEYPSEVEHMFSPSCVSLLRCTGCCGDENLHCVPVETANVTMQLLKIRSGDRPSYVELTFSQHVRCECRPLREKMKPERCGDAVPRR
As to the kind of experiment: ELISA binding to coated PLGF-1. The procedure:
as §1, §2

The target in the next assay is T4, BMP-2 (Homo sapiens, UniProt P12643).
T4 sequence (P12643 283-396): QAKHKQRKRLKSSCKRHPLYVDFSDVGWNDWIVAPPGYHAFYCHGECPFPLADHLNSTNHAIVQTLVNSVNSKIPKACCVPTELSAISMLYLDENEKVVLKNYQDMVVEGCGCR
Description: ELISA binding to coated BMP-2. As to the method: as §1, §2

Another assay deals with T5, BDNF (Homo sapiens, UniProt P23560).
T5 sequence (P23560 129-247): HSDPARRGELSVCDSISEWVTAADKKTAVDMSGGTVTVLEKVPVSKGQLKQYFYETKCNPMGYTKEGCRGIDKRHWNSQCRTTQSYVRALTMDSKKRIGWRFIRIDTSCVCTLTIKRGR
As to the kind of experiment: ELISA binding to coated BDNF. As to the method:
as §1, §2

In the next assay the target is PDGF-BB (Homo sapiens, UniProt P01127). As to the kind of experiment: ELISA binding to coated PDGF-BB. As to the method:
as §1, §2

Another assay concerns the target PDGF-AB (Homo sapiens, UniProt P01127+P04085). Description: ELISA binding to coated PDGF-AB. As to the method:
as §1, §2

The target in the next assay is IGF-BP3 (Homo sapiens, UniProt P17936). As to the kind of experiment: ELISA binding to coated IGF-BP3. As to the method:
as §1, §2

Another assay deals with T6, PLGF-2 (Homo sapiens, UniProt P49763).
T6 sequence (P49763 19-170 isoform P49763-3 limits assumed): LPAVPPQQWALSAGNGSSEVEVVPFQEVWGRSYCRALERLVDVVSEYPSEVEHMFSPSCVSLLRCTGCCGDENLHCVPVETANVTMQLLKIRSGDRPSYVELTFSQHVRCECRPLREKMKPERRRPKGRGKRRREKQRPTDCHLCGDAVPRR
Description: ELISA binding to coated PLGF-2. The procedure:
as §1, §2

Another assay has as its target TGF-β1 (Homo sapiens, UniProt P01137). As to the kind of experiment: ELISA binding to coated TGF-β1. As to the method: as §1, §2
A further assay has as its target T7, TGF-β2 (Homo sapiens, UniProt P61812).
T7 sequence (P61812 303-414 limits assumed): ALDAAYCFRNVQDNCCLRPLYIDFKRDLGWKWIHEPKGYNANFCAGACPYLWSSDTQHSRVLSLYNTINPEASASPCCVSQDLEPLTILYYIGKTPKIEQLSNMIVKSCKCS
Description: ELISA binding to coated TGF-β2. The procedure: as §1, §2

A further assay has as its target T8, VEGF-B (Homo sapiens, UniProt P49765).
T8 sequence (P49765 22-207): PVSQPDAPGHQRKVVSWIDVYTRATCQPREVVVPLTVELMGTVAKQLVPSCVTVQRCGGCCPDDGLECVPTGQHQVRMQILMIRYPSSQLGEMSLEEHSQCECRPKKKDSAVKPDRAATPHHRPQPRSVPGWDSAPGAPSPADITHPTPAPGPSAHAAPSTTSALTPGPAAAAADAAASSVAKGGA
Description: ELISA binding to coated VEGF-B. As to the method:
as §1, §2

For the next assay, the target named is T9, VEGF-A165 (Homo sapiens, UniProt P15692).
T9 sequence (P15692 1-191 isoform P15692-4): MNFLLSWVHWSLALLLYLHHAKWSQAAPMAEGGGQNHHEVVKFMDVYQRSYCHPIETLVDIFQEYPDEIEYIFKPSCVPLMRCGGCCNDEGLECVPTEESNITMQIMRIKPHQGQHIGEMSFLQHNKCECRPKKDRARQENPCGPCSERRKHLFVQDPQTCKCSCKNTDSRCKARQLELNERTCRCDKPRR
As to the kind of experiment: ELISA binding to coated VEGF-A165. As to the method:
as §1, §2

The target in a further assay is IGF-BP5 (Homo sapiens, UniProt P24593). As to the kind of experiment: ELISA binding to coated IGF-BP5. The procedure:
as §1, §2

Another assay addresses T10, FGF-10 (Homo sapiens, UniProt O15520).
T10 sequence (O15520 38-208): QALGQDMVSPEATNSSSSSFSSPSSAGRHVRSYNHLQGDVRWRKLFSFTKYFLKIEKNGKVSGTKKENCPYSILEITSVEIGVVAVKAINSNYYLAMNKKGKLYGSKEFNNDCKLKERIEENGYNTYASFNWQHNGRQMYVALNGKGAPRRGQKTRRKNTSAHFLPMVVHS
Description: ELISA binding to coated FGF-10. As to the method:
as §1, §2

Sequence of IGF-BP5 (P24593 21-272, species assumed): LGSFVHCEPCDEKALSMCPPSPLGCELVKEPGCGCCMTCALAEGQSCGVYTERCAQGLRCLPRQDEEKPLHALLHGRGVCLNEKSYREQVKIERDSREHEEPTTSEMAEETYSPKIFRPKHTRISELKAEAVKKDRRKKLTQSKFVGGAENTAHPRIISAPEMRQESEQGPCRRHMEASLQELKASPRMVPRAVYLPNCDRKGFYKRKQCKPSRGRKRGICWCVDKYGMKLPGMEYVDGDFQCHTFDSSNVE
Sequence of PDGF-AB (P01127 82-190 limits assumed, other chains not shown): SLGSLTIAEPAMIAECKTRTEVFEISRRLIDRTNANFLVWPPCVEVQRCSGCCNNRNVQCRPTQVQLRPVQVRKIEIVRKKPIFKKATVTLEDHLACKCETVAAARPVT
Sequence of PDGF-BB (P01127 82-190 limits assumed): as the sequence (P01127 82-190 limits assumed, other chains not shown) above
Sequence of TGF-β1 (P01137 279-390 limits assumed, species assumed): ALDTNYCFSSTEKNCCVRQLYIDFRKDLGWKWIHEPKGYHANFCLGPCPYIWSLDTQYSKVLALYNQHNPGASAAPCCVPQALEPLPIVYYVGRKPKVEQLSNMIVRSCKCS
Sequence of IGF-BP3 (P17936 28-291, species assumed): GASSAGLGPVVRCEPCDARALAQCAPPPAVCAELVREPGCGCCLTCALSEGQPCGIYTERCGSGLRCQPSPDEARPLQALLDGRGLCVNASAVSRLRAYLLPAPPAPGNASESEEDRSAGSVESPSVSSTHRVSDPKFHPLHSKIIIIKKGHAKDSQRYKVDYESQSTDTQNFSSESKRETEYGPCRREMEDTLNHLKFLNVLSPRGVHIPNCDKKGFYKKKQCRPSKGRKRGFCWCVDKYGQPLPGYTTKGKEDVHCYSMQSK
Sequence of FGF-2 (P09038 143-288, species assumed): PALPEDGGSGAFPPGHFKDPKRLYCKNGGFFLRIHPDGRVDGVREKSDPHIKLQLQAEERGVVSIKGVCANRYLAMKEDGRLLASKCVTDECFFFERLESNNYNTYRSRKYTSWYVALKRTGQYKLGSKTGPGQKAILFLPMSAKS

B1: Fg β15-66: heparin-binding domain of human fibrinogen β chain aa15-66 (SEQ ID NO:8); construct with TG substrate and His tag, SEQ ID NO:2 (protein)
chain: GSNQEQVSPLGHRPLDKKREEAPSLRPAPPPISGGGYRARPAKAAATQKKVERKAPDAGGCGHHHHHH
modifications: GS linker, transglutaminase substrate, the Fg beta15-66, with a Histidine tag
For B1, the “binding to NT-3 (ELISA, signal above BSA background)” value with NT-3 was “positive binding”. Also, the “binding to FGF-7 (ELISA, signal above BSA background)” value with FGF-7 is on record as “positive binding”. The “binding to FGF-2 (ELISA, signal above BSA background)” value in the assay with FGF-2 is on record as “positive binding”. For the same molecule, the “binding to PLGF-1 (ELISA, signal above BSA background)” value in the assay with PLGF-1 was “did not bind”. In the assay with BMP-2, the “binding to BMP-2 (ELISA, signal above BSA background)” value was “positive binding”. The “binding to BDNF (ELISA, signal above BSA background)” value with BDNF was “positive binding”. For the same molecule, in the assay with PDGF-BB, the “binding to PDGF-BB (ELISA, signal above BSA background)” value was “positive binding”. The “binding to PDGF-AB (ELISA, signal above BSA background)” value with PDGF-AB was “positive binding”. Also, in the assay with IGF-BP3, the “binding to IGF-BP3 (ELISA, signal above BSA background)” value was “positive binding”. Moreover, the “binding to PLGF-2 (ELISA, signal above BSA background)” value in the assay with PLGF-2 is reported as “positive binding”. For the same molecule, in the assay with TGF-β1, the “binding to TGF-β1 (ELISA, signal above BSA background)” value is reported as “positive binding”. Further, the “binding to TGF-β2 (ELISA, signal above BSA background)” value with TGF-β2 is “positive binding”. For the same molecule, in the assay with VEGF-B, the “binding to VEGF-B (ELISA, signal above BSA background)” value was “positive binding”. Moreover, in the assay with VEGF-A165, the “binding to VEGF-A165 (ELISA, signal above BSA background)” value was “positive binding”. The “binding to IGF-BP5 (ELISA, signal above BSA background)” value in the assay with IGF-BP5 is recorded as “positive binding”. Further, the “binding to FGF-10 (ELISA, signal above BSA background)” value with FGF-10 was “positive binding”.

B2: TNC III1-5: recombinant tenascin C fibronectin type III repeats 1-5 (E622 to A1074) with transglutaminase substrate NQEQVSPL and 6×His tag, SEQ ID NO:1 (protein)
chain: METDTLLLWVLLLWVPGSTGDAAQPAIEGRNQEQVSPLGGSEVSPPKDLVVTEVTEETVNLAWDNEMRVTEYLVVYTPTHEGGLEMQFRVPGDQTSTIIQELEPGVEYFIRVFAILENKKSIPVSARVATYLPAPEGLKFKSIKETSVEVEWDPLDIAFETWEIIFRNMNKEDEGEITKSLRRPETSYRQTGLAPGQEYEISLHIVKNNTRGPGLKRVTTTRLDAPSQIEVKDVTDTTALITWFKPLAEIDGIELTYGIKDVPGDRTTIDLTEDENQYSIGNLKPDTEYEVSLISRRGDMSSNPAKETFTTGLDAPRNLRRVSQTDNSITLEWRNGKAAIDSYRIKYAPISGGDHAEVDVPKSQQATTKTTLTGLRPGTEYGIGVSAVKEDKESNPATINAATELDTPKDLQVSETAETSLTLLWKTPLAKFDRYRLNYSLPTGQWVGVQLPRNTTSYVLRGLEPGQEYNVLLTAEKGRHKSKPARVKASTEQAGGGSHHHHHH
modifications: Tenascin III signal sequence with polyhistidine tag
On to B2, for which, in the assay with NT-3, the “binding to NT-3 (ELISA, signal above BSA background)” value is reported as “positive binding”. Further, in the assay with FGF-7, the “binding to FGF-7 (ELISA, signal above BSA background)” value was “positive binding”. Besides, the “binding to FGF-2 (ELISA, signal above BSA background)” value with FGF-2 was “positive binding”. Moreover, the “binding to PLGF-1 (ELISA, signal above BSA background)” value with PLGF-1 is reported as “positive binding”. For the same molecule, the “binding to BMP-2 (ELISA, signal above BSA background)” value with BMP-2 is given as “positive binding”. The “binding to BDNF (ELISA, signal above BSA background)” value with BDNF is listed as “positive binding”. The “binding to PDGF-BB (ELISA, signal above BSA background)” value in the assay with PDGF-BB was “positive binding”. For the same molecule, in the assay with PDGF-AB, the “binding to PDGF-AB (ELISA, signal above BSA background)” value is reported as “positive binding”. The “binding to IGF-BP3 (ELISA, signal above BSA background)” value with IGF-BP3 is on record as “positive binding”. In the assay with PLGF-2, the “binding to PLGF-2 (ELISA, signal above BSA background)” value is listed as “positive binding”. Further, the “binding to TGF-β1 (ELISA, signal above BSA background)” value in the assay with TGF-β1 is reported as “positive binding”. Also, the “binding to TGF-β2 (ELISA, signal above BSA background)” value with TGF-β2 was “positive binding”. In the assay with VEGF-B, the “binding to VEGF-B (ELISA, signal above BSA background)” value was “positive binding”. In addition, the “binding to VEGF-A165 (ELISA, signal above BSA background)” value with VEGF-A165 is on record as “positive binding”. Also, the “binding to IGF-BP5 (ELISA, signal above BSA background)” value with IGF-BP5 is “positive binding”. For the same molecule, the “binding to FGF-10 (ELISA, signal above BSA background)” value with FGF-10 is “positive binding”.
